Data: patent publication US20160311887A1 (CAMBRIDGE ENTERPRISE, published 2016)
Residue numbers refer to the chain shown, from its start. Names and notes keep the numbering of the source.

B1: FL α1AT Pitts C232S P2KP1′N (other)
chain: SDPQGDAAQKTDTSHHDQDHPTFNKITPNLAEFAFSLYRQLAHQSNSTNIFFSPVSIATAFAMLSLGTKADTHDEILEGLNFNLTEIPEAQIHEGFQELLRTLNQPDSQLQLTTGNGLFLSEGLKLVDKFLEDVKKLYHSEAFTVNFGDTEEAKKQINDYVEKGTQGKIVDLVKELDRDTVFALVNYIFFKGKWERPFEVKDTEEEDFHVDQVTTVKVPMMKRLGMFNIQHSKKLSSWVLLMKYLGNATAIFFLPDEGKLQHLENELTHDIITKFLENEDRRSASLHLPKLSITGTYDLKSVLGQLGITKVFSNGADLSGVTEEAPLKLSKAVHKAVLTIDEKGTEAAGAMFLEAIKRNIPPEVKFNKPFVFLMIEQNTKSPLFMGKVVNPTQK
notes: E. coli, purified; also called 3.B2; 2.H5
B2: FL α1AT Pitts C232S P2R (other)
chain: B1 chain with K357R, N359S
notes: E. coli, purified; also called P2.F10; P2.G8
B3: FL α1AT Pitts C232S P2QP1′K (other)
chain: B1 chain with K357Q, N359K
notes: E. coli, purified; also called 4.G4
B4: FL α1AT Pitts C232S P2KP1′H (other)
chain: B1 chain with N359H
notes: E. coli, purified; also called 1.A12
B5: α1AT Pitts (P1R) mutant P2WP1′H (other)
chain: B1 chain with K357W, N359H
B6: α1AT Pitts (P1R) mutant P2RP1′A (other)
chain: B1 chain with K357R, N359A
notes: also called 3.E5
B7: FL α1AT Pitts C232S P2K (other)
chain: B1 chain with N359S
notes: E. coli, SUMO tag removed; also called P2K α1AT Pitts; P2.G11
B8: FL α1AT Pitts C232S P1′K (other)
chain: B1 chain with K357P, N359K
notes: E. coli, SUMO tag removed; also called P1′K α1AT Pitts; P1′.F9
B9: A22 2.B10 PCI (P4SP2LP1′K) (other)
chain: APSSRRDFTFDLYRALASAAPSQNIFFSPVSISMSLAMLSLGAGSSTKMQILEGLGLNLQKSSEKELHRGFQQLLQELNQPRDGFQLSLGNALFTDLVVDLQDTFVSAMKTLYLADTFPTNFRDSAGAMKQINDYVAKQTKGKIVDLLKNLDSNAVVIMVNYIFFKAKWETSFNHKGTQEQDFYVTSETVVRVPMMSREDQYHYLLDRNLSCRVVGVPYQGNATALFILPSEGKMQQVENGLSEKTLRKWLKMFKKRQLELYLPKFSIEGSYQLEKVLPSLGISNVFTSHADLSGISNHSNIQVSEMVHKAVVEVDESGTRAAAATGTISTLRKARLNSQRLVFNRPFLMFIVDNNILFLGKVNRP
notes: As A22 WT PCI
B10: A22 4.H11 PCI (P4KP2RP1′H) (other)
chain: B9 chain with S330K, L332R, K334H
notes: As A22 WT PCI
B11: A22 5.E12 PCI (P4HP2RP1′V) (other)
chain: B9 chain with S330H, L332R, K334V
notes: As A22 WT PCI
B12: A22 D8 PCI (P4QP2RP1′N) (other)
chain: B9 chain with S330Q, L332R, K334N
notes: As A22 WT PCI
B13: FL α1AT Pitts C232S P1′E (other)
chain: B1 chain with K357P, N359E
notes: E. coli, purified; also called P1′.H8; P1′.F10
B14: FL α1AT Pitts C232S P2TP1′N (other)
chain: B1 chain with K357T
notes: E. coli, purified; also called 4.G9
B15: FL α1AT Pitts C232S P1′R (other)
chain: B1 chain with K357P, N359R
notes: E. coli, purified; also called P1′.A11
B16: FL α1AT Pitts C232S P2RP1′C (other)
chain: B1 chain with K357R, N359C
notes: E. coli, purified; also called 1.B11
B17: FL α1AT Pitts C232S P2TP1′Y (other)
chain: B1 chain with K357T, N359Y
notes: E. coli, purified; also called 3.A10

The binders below were run against TF:fVIIa (UniProt P13726 33-295; P08709 61-466, limits assumed) (assay: cell-based or functional assay).
Chain of TF:fVIIa (P13726 33-295 limits assumed, chain 1 of 2): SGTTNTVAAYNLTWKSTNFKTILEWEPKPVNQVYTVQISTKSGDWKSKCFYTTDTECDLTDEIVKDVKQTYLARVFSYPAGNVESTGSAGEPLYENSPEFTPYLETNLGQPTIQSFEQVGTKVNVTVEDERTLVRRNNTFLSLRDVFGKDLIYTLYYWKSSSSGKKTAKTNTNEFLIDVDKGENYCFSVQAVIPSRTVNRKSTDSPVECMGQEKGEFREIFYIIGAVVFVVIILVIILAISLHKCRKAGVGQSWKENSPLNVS
Chain of TF:fVIIa (P08709 61-466 limits assumed, chain 2 of 2): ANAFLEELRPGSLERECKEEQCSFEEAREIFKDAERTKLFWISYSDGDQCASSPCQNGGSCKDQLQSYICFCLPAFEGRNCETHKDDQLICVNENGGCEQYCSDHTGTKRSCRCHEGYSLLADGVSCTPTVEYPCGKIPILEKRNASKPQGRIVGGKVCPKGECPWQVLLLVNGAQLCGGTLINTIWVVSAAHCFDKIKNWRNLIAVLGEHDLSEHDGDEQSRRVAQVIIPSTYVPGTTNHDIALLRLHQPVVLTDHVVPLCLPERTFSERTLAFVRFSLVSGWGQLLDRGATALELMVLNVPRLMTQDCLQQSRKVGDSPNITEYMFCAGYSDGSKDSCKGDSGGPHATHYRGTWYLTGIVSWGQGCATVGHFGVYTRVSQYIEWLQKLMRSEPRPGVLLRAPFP
With B1 the “PT (s), 5 µM serpin” value was 27.8 s. With B2 the “PT (s), 5 µM serpin” value was 27.8 s. B3 was tested, and the “PT (s), 5 µM serpin” value was 27.9 s. In the case of B4, the “PT (s), 5 µM serpin” value is reported as 27.4 s.

What follows are binders tested against T1, fXa (UniProt P00742 41-179; P00742 235-488) (assay: single-concentration estimate (FIG. 15)).
T1 construct: also called factor Xa
T1 sequence (P00742 41-179 limits assumed, form in doubt, chain 1 of 2): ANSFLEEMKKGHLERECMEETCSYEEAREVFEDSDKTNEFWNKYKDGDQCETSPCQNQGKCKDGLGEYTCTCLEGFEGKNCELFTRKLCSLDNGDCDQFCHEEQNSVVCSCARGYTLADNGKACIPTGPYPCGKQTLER
T1 sequence (P00742 235-488 limits assumed, form in doubt, chain 2 of 2): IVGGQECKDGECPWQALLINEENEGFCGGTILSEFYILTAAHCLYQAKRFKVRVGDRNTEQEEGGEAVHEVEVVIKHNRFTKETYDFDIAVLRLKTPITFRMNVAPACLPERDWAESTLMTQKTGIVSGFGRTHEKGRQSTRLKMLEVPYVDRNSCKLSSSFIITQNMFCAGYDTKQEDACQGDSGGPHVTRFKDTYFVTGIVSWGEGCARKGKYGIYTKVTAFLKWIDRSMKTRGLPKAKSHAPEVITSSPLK
Procedure: 1 μM serpin was incubated with 12.5 nM protease for different amounts of time. At the indicated timepoints, the reaction was stopped by addition of an excess of chromogenic substrate (S2238 for thrombin, S2222 for fXa). The residual enzyme activity was divided by the initial enzyme activity and the natural log of this value plotted against time. The slope of these plots is the observed rate constant, kobs. To obtain an estimate of the second-order rate constant k₂, kobs was divided by the serpin concentration. […] The mutants shown all have the Pitts (M358R, P1R) mutation.
Four additional mutants were identified from this additional screen. These all had the P1R mutation and in addition had either P2RP1′A, P2RP1′Q, P2WP1′I or P2WP1′H. To verify the specificity of these mutants, an initial experiment was performed, using only one concentration of serpin and testing its inhibition of thrombin and fXa. APC inhibition was not considered at this stage, because mutants were selected based on their low inhibition of thrombin and fXa. Serpin and protease were incubated for different times and at the indicated timepoints, the reaction was stopped by addition of an excess of chromogenic substrate. Residual protease activity was divided by the initial protease activity and the natural log of this value plotted against time (FIG. 15). The slope of this line divided by the serpin concentration gives an estimate of the second-order rate constant of inhibition.
B5 was tested, and the “fold reduction of the second-order rate constant compared to FL α1AT Pitts C232S” value was roughly 10 fold. With B6 the “fold reduction of the second-order rate constant compared to FL α1AT Pitts C232S” value was roughly 10 fold.

What follows are binders tested against T2, activated Protein C (APC) (human, UniProt P04070 43-197; P04070 212-461) (assay: ratio of rate constants, APC over fXa).
T2 construct: also called human plasma APC
T2 sequence (P04070 43-197, chain 1 of 2): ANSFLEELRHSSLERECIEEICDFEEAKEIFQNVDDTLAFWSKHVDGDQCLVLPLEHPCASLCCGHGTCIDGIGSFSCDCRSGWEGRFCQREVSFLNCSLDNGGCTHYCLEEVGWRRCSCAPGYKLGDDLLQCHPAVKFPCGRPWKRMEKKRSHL
T2 sequence (P04070 212-461, chain 2 of 2): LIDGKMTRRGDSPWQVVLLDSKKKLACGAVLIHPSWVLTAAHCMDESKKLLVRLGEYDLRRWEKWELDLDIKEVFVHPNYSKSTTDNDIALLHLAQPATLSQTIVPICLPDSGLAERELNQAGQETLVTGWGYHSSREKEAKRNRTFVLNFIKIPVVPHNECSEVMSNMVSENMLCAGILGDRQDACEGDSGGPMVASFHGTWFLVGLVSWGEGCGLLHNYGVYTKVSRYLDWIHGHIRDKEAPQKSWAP
Procedure: (§1) The inhibition of APC was reduced but still considerable, especially for the variants of α₁AT and the PCI variants in the presence of heparin. However, the specificity of PCI and α₁AT Pitts is not limited to thrombin and APC. […] In order not to inhibit coagulation, our variants also need to be specific for APC over fXa. We therefore also determined the rate constants of inhibition of PCI and α₁AT and their variants for fXa (Table 3). Rate constants were measured under pseudo-first-order conditions using an excess of serpin over protease. Serpin and protease were incubated together for varying lengths of time and the residual activity determined by adding an excess of chromogenic substrate (S2222) for the protease. Plots of residual protease activity over time gave the observed rate constant kobs. The second-order rate constant, k₂, is the slope of the plot of kobs versus serpin concentration (fitted using a linear regression model). Standard errors of the slope are shown (Table 3).
With B7 the “fold inhibition APC/fXa” value was 16.5 fold. In the case of B8, the “fold inhibition APC/fXa” value is reported as 19.6 fold.

Target: T2, activated Protein C (APC)
Test: ratio of rate constants, APC over fXa
Remark: another data set of the same source
In the case of B1, the “inhibition of APC/fXa” value is reported as 41.5 fold. B2 was tested, and the “inhibition of APC/fXa” value was 12.8 fold. For B3, the “inhibition of APC/fXa” value was 30.9 fold. B4 was tested, and the “inhibition of APC/fXa” value was 46.5 fold.

These binders were tested against T2, activated Protein C (APC) (assay: ratio of rate constants, APC over thrombin).
Procedure: (§2) Rate constants of thrombin and APC inhibition were measured under pseudo-first-order conditions using an excess of serpin over protease (Table 1). Serpin and protease were incubated together for varying lengths of time and the residual activity was determined by adding an excess of chromogenic substrate for the protease (S2238 for thrombin and […] for APC). Residual protease activity was then measured by following the absorbance at 405 nm. Plots of residual protease activity over time gave the observed rate constant kobs. The second-order rate constant, ₖ₂, is the slope of the plot of kobs versus serpin concentration (fitted using a linear regression model). Standard errors of the slope are shown.
In the case of B7, the “fold inhibition APC/thrombin” value is reported as 1270 fold. For B8, the “fold inhibition APC/thrombin” value was 563 fold.

Target: T2, activated Protein C (APC)
Test: ratio of rate constants, APC over thrombin
Remark: another data set of the same source
Procedure: Standard errors are shown.
(§3) Preliminary second-order rate constants for the inhibition of thrombin and APC by random mutagenesis PCI variants were measured under pseudo first-order conditions using an excess of serpin over protease. Serpin and protease were incubated together for varying lengths of time and the residual activity determined by adding an excess of chromogenic substrate for the protease. Plots of residual protease activity over time gave the observed rate constant kobs. The second-order rate constant, k₂, is the slope of the plot of kobs versus serpin concentration (fitted using a linear regression model). WT and P2KP1′K are shown for comparison. The error shown is the standard error of the slope.
In the case of B9, the “inhibition of APC/thrombin” value is reported as 26.9 fold. With B10 the “inhibition of APC/thrombin” value was 21.4 fold. B11 was tested, and the “inhibition of APC/thrombin” value was 11.3 fold. In the case of B12, the “inhibition of APC/thrombin” value is reported as 11.9 fold.

Target: T2, activated Protein C (APC)
Test: ratio of rate constants, APC over thrombin
Remark: another data set of the same source
For B1, the “inhibition of APC/thrombin” value was 2520 fold. For B2, the “inhibition of APC/thrombin” value was 1460 fold. With B13 the “inhibition of APC/thrombin” value was 19.9 fold. In the case of B3, the “inhibition of APC/thrombin” value is reported as 8790 fold. With B14 the “inhibition of APC/thrombin” value was 231 fold. B15 was tested, and the “inhibition of APC/thrombin” value was 194 fold. B16 was tested, and the “inhibition of APC/thrombin” value was 722 fold. In the case of B17, the “inhibition of APC/thrombin” value is reported as 248 fold.

The binders below were run against T3, thrombin (UniProt P00734 328-622) (assay: pseudo-first-order inhibition kinetics, residual chromogenic activity).
Procedure: as §2
For B7, the “second-order rate constant of inhibition” value was 51 M⁻¹ s⁻¹. For B8, the “second-order rate constant of inhibition” value was 170 M⁻¹ s⁻¹.

Each binder was assayed against T2, activated Protein C (APC) in the same assay as above.
Procedure: as §2
With B7 the “second-order rate constant of inhibition” value was 64800 M⁻¹ s⁻¹. In the case of B8, the “second-order rate constant of inhibition” value is reported as 95700 M⁻¹ s⁻¹.

Target: T3, thrombin
Test: as above
Remark: another data set of the same source
B1 was tested, and the “second-order rate constant of inhibition” value was 15 M⁻¹ s⁻¹. With B2 the “second-order rate constant of inhibition” value was 42 M⁻¹ s⁻¹. B13 was tested, and the “second-order rate constant of inhibition” value was 150 M⁻¹ s⁻¹. For B3, the “second-order rate constant of inhibition” value was 3.8 M⁻¹ s⁻¹. For B14, the “second-order rate constant of inhibition” value was 270 M⁻¹ s⁻¹. B15 was tested, and the “second-order rate constant of inhibition” value was 680 M⁻¹ s⁻¹. In the case of B16, the “second-order rate constant of inhibition” value is reported as 34 M⁻¹ s⁻¹. With B17 the “second-order rate constant of inhibition” value was 23 M⁻¹ s⁻¹.

Target: T2, activated Protein C (APC)
Test: as above
Remark: another data set of the same source
With B1 the “second-order rate constant of inhibition” value was 37800 M⁻¹ s⁻¹. In the case of B2, the “second-order rate constant of inhibition” value is reported as 61100 M⁻¹ s⁻¹. With B13 the “second-order rate constant of inhibition” value was 2990 M⁻¹ s⁻¹. B3 was tested, and the “second-order rate constant of inhibition” value was 33400 M⁻¹ s⁻¹. For B14, the “second-order rate constant of inhibition” value was 62400 M⁻¹ s⁻¹. B15 was tested, and the “second-order rate constant of inhibition” value was 132000 M⁻¹ s⁻¹. With B4 the “second-order rate constant of inhibition” value was 28800 M⁻¹ s⁻¹. In the case of B16, the “second-order rate constant of inhibition” value is reported as 24600 M⁻¹ s⁻¹. For B17, the “second-order rate constant of inhibition” value was 5700 M⁻¹ s⁻¹.

Each binder was assayed against T1, fXa (assay: pseudo-first-order inhibition kinetics, residual chromogenic activity (S2222)).
Procedure: as §1
B7 was tested, and the “second-order rate constant of inhibition” value was 3930 M⁻¹ s⁻¹. B8 was tested, and the “second-order rate constant of inhibition” value was 4890 M⁻¹ s⁻¹.

Target: T1, fXa
Test: as above
Remark: another data set of the same source
In the case of B1, the “second-order rate constant of inhibition” value is reported as 910 M⁻¹ s⁻¹. With B2 the “second-order rate constant of inhibition” value was 4790 M⁻¹ s⁻¹. B3 was tested, and the “second-order rate constant of inhibition” value was 1080 M⁻¹ s⁻¹. With B4 the “second-order rate constant of inhibition” value was 620 M⁻¹ s⁻¹.

Each binder was assayed against T3, thrombin (assay: preliminary pseudo-first-order inhibition kinetics, residual chromogenic activity).
Procedure: as §3
B9 was tested, and the “second-order rate constant of inhibition” value was 16 M⁻¹ s⁻¹. In the case of B10, the “second-order rate constant of inhibition” value is reported as 21 M⁻¹ s⁻¹. For B11, the “second-order rate constant of inhibition” value was 23 M⁻¹ s⁻¹. In the case of B12, the “second-order rate constant of inhibition” value is reported as 84 M⁻¹ s⁻¹.

The binders below were run against T2, activated Protein C (APC) in the same assay as above.
Procedure: as §3
With B9 the “second-order rate constant of inhibition” value was 430 M⁻¹ s⁻¹. With B10 the “second-order rate constant of inhibition” value was 450 M⁻¹ s⁻¹. With B11 the “second-order rate constant of inhibition” value was 260 M⁻¹ s⁻¹. For B12, the “second-order rate constant of inhibition” value was 1000 M⁻¹ s⁻¹.
